From patent publication US20250011363A1, “OPTIMIZED SHORTENED PEPTIDE THAT BINDS TO ACETYLCHOLINE RECEPTOR, AND USE THEREOF” (SKINMED CO., LTD., priority 2021, published 2025)

Key:
[1] = target: acetylcholine receptor; experiment: SPR, AchR immobilized on CM5 chip, peptide 10 µM
[2] = target: acetylcholine receptor; experiment: SPR, peptide at 10 uM, AchR immobilized

Binding affinity (RU) [1] [RU] | Binding affinity [2] [RU] | Binder
135 | – | RGLSRR [6mer-2-211]
126 | – | KGILKK [6mer-2-216]
– | 26 | RRAAVR [6mer-1-732]
144 | – | KGISKK [6mer-2-231]
– | 19 | KRPKNK [6mer-1-724]
139 | – | RRFSKR [6mer-2-244]
142 | – | RSQTKR [6mer-2-234]
– | 23 | KKKSGK [6mer-1-729]
148 | – | RLYYRK [6mer-2-209]
– | 13 | KRATFR [6mer-1-730]
122 | – | RLIYKK [6mer-2-202]
127 | – | RVVYRK [6mer-2-222]
147 | – | KSFQRK [6mer-2-205]
135 | – | KLFQKK [6mer-2-217]
– | 33 | RKMPAK [6mer-1-723]
– | 18 | RRIKAR [6mer-1-731]
142 | – | RRRCRK [6mer-2-240]
154 | – | RLLCKR [6mer-2-226]
128 | – | RSQSRR [6mer-2-210]
131 | – | KWQQKK [6mer-2-236]
142 | – | KQLTRR [6mer-2-223]
123 | – | RLVYKR [6mer-2-237]

The next lines start with the binder.

Binder | Binding affinity (RU) [1] [RU] | Binding affinity [2] [RU]
RRVQKR [6mer-2-204] | 142 | –
KWQYKK [6mer-2-206] | 148 | –
RWRSRK [6mer-2-214] | 139 | –
KSQRRR [6mer-2-242] | 135 | –
RKANGK [6mer-1-727] | – | 29
KKDKPK [6mer-1-725] | – | 32
RRKHKR [6mer-1-720] | – | 11
KLVRKK [6mer-2-235] | 136 | –
KSILRR [6mer-2-213] | 142 | –
RSQQRK [6mer-2-208] | 128 | –
KWQLRR [6mer-2-212] | 148 | –
RRRRRK [6mer-2-238] | 142 | –
RWQSKK [6mer-2-229] | 127 | –
KQVRKK [6mer-2-221] | 153 | –
RGVSKR [6mer-2-219] | 153 | –
RLFLKR [6mer-2-224] | 148 | –
KKHSMK [6mer-1-726] | – | 33
RRNKVR [6mer-1-722] | – | 12

Binder | Binding affinity (RU) [1] [RU] | Binding affinity [2] [RU]
RKAMEK [6mer-1-721] | – | 22
RWIQRR [6mer-2-230] | 135 | –
KGQCKK [6mer-2-228] | 141 | –
RGQYKK [6mer-2-239] | 125 | –
RSLSKR [6mer-2-245] | 135 | –
RLYYRR [6mer-2-215] | 123 | –
KRVLKR [6mer-2-243] | 148 | –
KSRTKR [6mer-2-203] | 135 | –
KWVSKR [6mer-2-207] | 153 | –
KGVSKK [6mer-2-218] | 147 | –
RRDNAR [6mer-1-728] | – | 23
KRLLRR [6mer-2-225] | 145 | –
KQLTKR [6mer-2-241] | 135 | –
KKDAEK [6mer-1-719] | – | 27
KQFTRK [6mer-2-232] | 135 | –
KLQRRK [6mer-2-227] | 147 | –
KVYSKR [6mer-2-220] | 135 | –
